Measurements: US20080031815A1 (published 2008)
Each block holds one binder with its values, some of them ahead of it.

Key:
[1] = target: T1, human VEGFR-1 (FLT-1) expressed on porcine aortic endothelial cells (PAE/FLT-1) (human), P17948; assay: competitive cell binding on PAE/FLT-1 cells, 125I-VEGF165 as radioligand; details: remark: other sources report otherwise
T1 chain: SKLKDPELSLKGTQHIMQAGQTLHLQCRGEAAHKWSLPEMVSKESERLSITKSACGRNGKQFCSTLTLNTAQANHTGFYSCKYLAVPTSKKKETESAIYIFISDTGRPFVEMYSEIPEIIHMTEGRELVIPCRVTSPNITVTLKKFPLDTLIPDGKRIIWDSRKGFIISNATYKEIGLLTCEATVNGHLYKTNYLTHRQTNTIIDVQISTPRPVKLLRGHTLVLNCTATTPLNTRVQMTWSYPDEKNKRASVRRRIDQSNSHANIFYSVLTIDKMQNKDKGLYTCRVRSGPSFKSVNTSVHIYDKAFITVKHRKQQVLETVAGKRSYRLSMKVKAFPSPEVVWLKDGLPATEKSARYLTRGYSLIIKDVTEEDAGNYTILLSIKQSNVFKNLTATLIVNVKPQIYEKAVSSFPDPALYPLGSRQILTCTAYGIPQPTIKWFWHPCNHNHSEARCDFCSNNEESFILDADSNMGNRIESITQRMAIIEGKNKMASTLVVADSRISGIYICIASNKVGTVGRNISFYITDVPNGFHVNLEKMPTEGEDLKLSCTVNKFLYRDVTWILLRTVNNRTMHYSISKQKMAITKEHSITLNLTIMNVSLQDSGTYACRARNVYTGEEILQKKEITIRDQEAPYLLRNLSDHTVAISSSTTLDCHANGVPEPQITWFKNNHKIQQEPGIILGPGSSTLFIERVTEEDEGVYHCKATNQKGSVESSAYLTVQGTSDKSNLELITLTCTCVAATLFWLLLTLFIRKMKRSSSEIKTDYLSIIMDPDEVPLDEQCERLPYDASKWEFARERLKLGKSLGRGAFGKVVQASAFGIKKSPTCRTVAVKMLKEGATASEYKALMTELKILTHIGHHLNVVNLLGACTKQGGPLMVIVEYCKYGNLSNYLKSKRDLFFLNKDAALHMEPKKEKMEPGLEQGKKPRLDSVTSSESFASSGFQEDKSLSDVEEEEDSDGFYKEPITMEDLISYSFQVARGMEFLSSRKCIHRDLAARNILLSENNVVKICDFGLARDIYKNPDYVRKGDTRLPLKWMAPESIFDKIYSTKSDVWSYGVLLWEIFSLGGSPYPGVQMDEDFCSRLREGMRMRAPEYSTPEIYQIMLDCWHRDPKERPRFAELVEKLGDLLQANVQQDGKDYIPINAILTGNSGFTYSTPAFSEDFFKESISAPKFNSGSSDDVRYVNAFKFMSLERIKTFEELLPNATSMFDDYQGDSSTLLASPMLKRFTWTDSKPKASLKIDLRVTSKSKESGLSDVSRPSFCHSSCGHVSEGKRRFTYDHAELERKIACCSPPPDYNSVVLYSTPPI

[2] = target: T2, human VEGFR-2 (KDR) expressed on porcine aortic endothelial cells (PAE/KDR) (human, UniProt P35968 20-1356); assay: competitive cell binding on PAE/KDR cells, 125I-VEGF165 as radioligand
T2 construct: whole, on cells; also called Flk-1/KDR; PAE/KDR cells
T2 sequence (P35968 20-1356): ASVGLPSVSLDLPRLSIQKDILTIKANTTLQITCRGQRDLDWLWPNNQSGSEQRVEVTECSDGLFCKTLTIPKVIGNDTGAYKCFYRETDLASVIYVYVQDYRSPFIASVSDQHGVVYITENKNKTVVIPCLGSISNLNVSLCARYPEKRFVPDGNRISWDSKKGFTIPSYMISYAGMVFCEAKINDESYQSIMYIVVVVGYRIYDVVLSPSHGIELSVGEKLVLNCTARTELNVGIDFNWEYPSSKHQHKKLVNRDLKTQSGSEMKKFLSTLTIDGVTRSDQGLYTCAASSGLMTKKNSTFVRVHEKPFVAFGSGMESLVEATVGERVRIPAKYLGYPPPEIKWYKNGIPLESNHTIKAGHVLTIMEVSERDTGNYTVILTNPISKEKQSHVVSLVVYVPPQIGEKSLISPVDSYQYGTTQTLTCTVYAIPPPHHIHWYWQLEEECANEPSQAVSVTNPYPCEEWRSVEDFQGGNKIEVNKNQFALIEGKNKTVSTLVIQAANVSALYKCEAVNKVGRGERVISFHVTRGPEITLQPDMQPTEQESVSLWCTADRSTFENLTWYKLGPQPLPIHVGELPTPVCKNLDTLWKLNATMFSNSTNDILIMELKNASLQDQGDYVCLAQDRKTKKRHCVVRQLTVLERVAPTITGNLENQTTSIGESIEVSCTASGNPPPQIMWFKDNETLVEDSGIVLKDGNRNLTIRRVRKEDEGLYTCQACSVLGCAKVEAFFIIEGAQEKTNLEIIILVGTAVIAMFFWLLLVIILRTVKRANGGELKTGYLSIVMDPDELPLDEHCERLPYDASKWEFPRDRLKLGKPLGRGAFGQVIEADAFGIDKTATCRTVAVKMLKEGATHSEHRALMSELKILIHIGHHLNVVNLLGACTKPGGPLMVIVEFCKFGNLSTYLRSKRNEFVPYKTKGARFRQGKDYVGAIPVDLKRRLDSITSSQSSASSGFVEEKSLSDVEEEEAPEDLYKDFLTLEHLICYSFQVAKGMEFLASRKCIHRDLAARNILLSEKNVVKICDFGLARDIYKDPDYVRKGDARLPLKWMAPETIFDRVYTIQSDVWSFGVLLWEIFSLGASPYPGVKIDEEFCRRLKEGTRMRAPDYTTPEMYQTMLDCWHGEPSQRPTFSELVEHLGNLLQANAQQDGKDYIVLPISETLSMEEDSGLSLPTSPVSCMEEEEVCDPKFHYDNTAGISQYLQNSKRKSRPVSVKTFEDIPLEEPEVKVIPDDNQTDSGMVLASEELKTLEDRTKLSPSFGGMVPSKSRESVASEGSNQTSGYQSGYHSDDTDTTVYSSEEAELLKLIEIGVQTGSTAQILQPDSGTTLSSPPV
Description: (§1) The detailed procedure of competitive cell binding assay has been described herein. VEGFR-1 and VEGFR-2 binding affinity of VEGF₁₂₁, VEGFDEE, and the DOTA conjugates was evaluated by PAE/FLT-1 and PAE/KDR cell binding assays using ¹²⁵I-VEGF₁₆₅ (VEGF₁₆₅ protein (SEQ ID No: 4)) as the radioligand. The best-fit IC₅₀ values were calculated by fitting the data by nonlinear regression using GraphPad Prism (GraphPad Software, Inc.). Experiments were carried out with triplicate samples.

[3] = target: T2, human VEGFR-2 (KDR) expressed on …; assay: competitive cell binding on PAE/KDR cells, 125I-VEGF165 as radioligand (Example 2)
[4] = target: T3, soluble VEGFR1D1-D6 (sVEGFR1) (Homo sapiens (Human), UniProt P17948 27-687); assay: plate-coated sVEGFR1, competition with 125I-VEGF165
T3 construct: Coated on 96-well plates
Description: (§2) Porcine aortic endothelial cells (PAE-KDR cells) stably transfected to express human VEGFR2 (KDR) and porcine aortic endothelial cells (PAE cells) not expressing VEGFR1 and VEGFR2 were cultured in Ham's F-12 medium containing 10% fetal bovine serum (Sigma-Aldrich, Saint Louis, Mo.). Using ¹²⁵I-VEGF₁₆₅ as the radioligand, receptor-binding affinity of VEGF₁₂₁ and VEGFNLS for VEGFR2 was performed as described elsewhere for both PAE-KDR and PAE cells (J Med. Chem. 2005; 48:1098-1106, which is include herein by reference). […] Serially diluted VEGF₁₂₁ or VEGFNLS were then added to compete with the radioligand ¹²⁵I-VEGF₁₆₅. After 2 h incubation at room temperature, the plates were washed and bound ¹²⁵I-VEGF₁₆₅/sVEGFR1 complex was dissociated by acidified 0.1% SDS solution, the eluent was collected and the radioactivity was measured by a gamma counter (Cobra II Auto-Gamma; Perkin-Elmer, Wellesley, Mass.). The best-fit 50% inhibitory concentration (IC₅₀) values were calculated by fitting the data by nonlinear regression using GraphPad Prism 4.0 (GraphPad Software, Inc., San Diego, Calif.). Experiments were performed twice with triplicate samples.

[5] = target: T2, human VEGFR-2 (KDR) expressed on …; assay: competitive cell binding on PAE-KDR cells, 125I-VEGF165 as radioligand
Description: as §2

[6] = target: T2, human VEGFR-2 (KDR) expressed on …; assay: cell-based or functional assay
[7] = target: T4, human VEGFR-1 (FLT-1) expressed on porcine aortic endothelial cells (PAE/FLT-1) (human, UniProt P17948 27-1338); assay: competitive cell binding on PAE/FLT-1 cells
T4 construct: whole, on cells; also called PAE/VEGFR-1 cells; PAE/FLT-1 cells
Description: as §1
(§3) Two proteins were prepared for this study: VEGF₁₂₁ and the triple mutant at the 63, 64, and 67 positions (VEGFDEE) (FIG. 17). The His-tag containing proteins were purified to homogeneity. Cell binding assay was then carried out to determine the VEGFR-1 and VEGFR-2 binding affinity (FIGS. 18a and 18b).

[8] = target: T2, human VEGFR-2 (KDR) expressed on …; assay: competitive cell binding on PAE/KDR cells
Description: as §1, §3

[9] = target: T4, human VEGFR-1 (FLT-1) expressed on …; assay: competitive cell binding on PAE/FLT-1 cells, 125I-VEGF165 as radioligand
Description: as §1, §3

[10] = target: T2, human VEGFR-2 (KDR) expressed on …; assay: competitive cell binding on PAE/KDR against PAE/FLT-1 cells
Description: as §1, §3

IC50 [1]: 4.2 nM
B1: VEGF121 protein (Examples 3 and 5: His-tag containing, expressed from pRSF-Duet1), P15692 207-395 (ligand, not shown: small tags and cut ends)
chain: APMAEGGGQNHHEVVKFMDVYQRSYCHPIETLVDIFQEYPDEIEYIFKPSCVPLMRCGGCCNDEGLECVPTEESNITMQIMRIKPHQGQHIGEMSFLQHNKCECRPKKDRARQEKCDKPRR

IC50 [2]: 1.66 nM
IC50 [3]: 1.59 nM
B2: DOTA-VEGF121 (Examples 1 and 2) (ligand)
chain: B1 chain
modifications: DOTA conjugated to lysine residues and/or N-terminal amine groups; 4.33±0.24 DOTA per VEGF121
notes: The conjugation sites are not mapped

IC50 [2]: 1.02 nM
IC50 [3]: 1.11 nM
B3: VEGF121 protein (Examples 1 and 2: expressed from pET-32, tag removed with enterokinase) (ligand)
chain: B1 chain
notes: also called unlabeled VEGF121; naive VEGF121

IC50 [4]: 4 nM
IC50 [5]: 2.9 nM
functional assay using PAE/KDR cells (FIG. 18e) [6]: > 5 nM
phosphorylated VEGFR-2 (Western blot, PAE/KDR cells) [6]: > 10 nM
B4: VEGF121 protein (Examples 3 and 5: His-tag containing, expressed from pRSF-Duet1) (ligand)
chain: B1 chain
notes: No tag removal is described; also called wild type VEGF121; wild-type VEGF121; not shown: His-tag

IC50 [2]: 5 nM
functional assay using PAE/KDR cells (FIG. 18e) [6]: > 5 nM
phosphorylated VEGFR-2 (Western blot, PAE/KDR cells) [6]: > 10 nM
B5: DOTA-VEGF121 (Example 5) (ligand)
chain: B1 chain
modifications: DOTA conjugated; 2.1±0.1 DOTA molecules per monomeric VEGF121; sites not stated
notes: DOTA conjugate of m3; not shown: His-tag

fold lower binding against VEGF121 [7]: ~20 fold
IC50 [2]: 11.7 nM
fold lower binding affinity against VEGF121 [8]: 4 fold
IC50 [9]: 78.1 nM
fold higher binding affinity against VEGFR-1 [10]: ~7 fold
functional assay using PAE/KDR cells (FIG. 18e) [6]: > 5 nM
phosphorylated VEGFR-2 (Western blot, PAE/KDR cells) [6]: > 10 nM
B6: VEGFR-2 specific mutant VEGFDEE (D63AE64AE67A mutant of VEGF121) (ligand)
chain: MAPMAEGGGQNHHEVVKFMDVYQRSYCHPIETLVDIFQEYPDEIEYIFKPSCVPLMRCGGCCNAAGLACVPTEESNITMQIMRIKPHQGQHIGEMSFLQHNKCECRPKKDRARQEKCDKPRRGS
notes: also called VEGF121-DEE Mutant; not shown: His-tag

IC50 [2]: 10.3 nM
functional assay using PAE/KDR cells (FIG. 18e) [6]: > 5 nM
phosphorylated VEGFR-2 (Western blot, PAE/KDR cells) [6]: > 10 nM
B7: DOTA-VEGFDEE (ligand)
chain: B6 chain
modifications: DOTA conjugated; 2.2±0.1 DOTA molecules per monomeric VEGFDEE; sites not stated
notes: DOTA conjugate of m4; not shown: His-tag
